According to patent US8822640B2, “Tetrameric streptavidin mutein with reversible biotin binding capability” (UTI Limited Partnership, priority 2011, dated 2014):

Legend:
[1] = data from U.S. Pat. No. 6,312,916 B1, cited from earlier work
[2] = system: biotinylated protein G and biotinylated IgG; experiment: Mutein-agarose affinity matrix: purification of biotinylated proteins, matrix stability and reuse; details: comparison of FIGS. 7 and 10
Protocol: Other methods. BIAcore biosensor for determining the kinetic parameters, preparation of streptavidin-agarose matrix and purification of biotinylated proteins were performed as previously described (Wu and Wong, 2005a; Wu and Wong, 2005b).
Stable subunit interactions in the 8-aa-loop-H127 mutein. The purified 8-aa-loop-H127C mutein can be immobilized to the agarose matrix with an estimated concentration of 3.8 mg/ml of settled agarose beads. […] Since it is likely that only one subunit in an tetrameric 8-aa-loop-H127C mutein was chemically coupled to the matrix (the other three subunits associated with the immobilized subunit via non-covalent interactions), this observation illustrates that the subunit interactions between the subunits in the tetrameric 8-aa-loop-H127C mutein were stable enough and the non-covalently associated subunits were not washed off from the column under the conditions used for the binding, washing and elution processes.
Application of the 8-aa-loop-H127C mutein-agarose matrices for purification of biotinylated protein G and biotinylated IgG. […] The bound biotinylated proteins could be eluted off from the column using 4 mM biotin (FIGS. 7 and 8).

[3] = Biotin binding data taken from literature / U.S. Pat. No. 6,312,916 B1; details: for t1/2, half-life of biotin in the SAV-biotin complex: estimated as 0.693/koff/60 from the cited koff

t1/2, half-life of biotin in the SAV-biotin complex [3]: 1.96 min | t1/2, half-life of biotin in the SAV-biotin complex ([3]; listed as Roche mutein): 1.9 min | biotin binding affinity lower than that of the 8-aa-loop-H127C mutein ([3]; ratio of Kd values): ~10 fold | half-life of biotin in the SAV-biotin complex shorter than that of the 8-aa-loop-H127C mutein ([3]; ratio of t1/2 values): ~14 fold
B1: SAV mutein from Roche: commercially available streptavidin mutein with reversible biotin binding, changes S27R, S45R and L110W (U.S. Pat. No. 6,312,916 B1) (protein)
chain: AEAGITGTWYNQLGRTFIVTAGADGALTGTYERAVGNAESRYVLTGRYDSAPATDGSGTALGWTVAWKNNYRNAHSATTWSGQYVGGAEARINTQWLWTSGTTEANAWKSTLVGHDTFTKVKPSAAS
ka or kon [1]: 45000 M⁻¹ s⁻¹ | kd or koff [1]: 0.0059 s⁻¹ | Kd ([1]; read-out: Kd (biotin binding affinity)): 130 nM | binding capacity of the matrix for biotinylated protein G [2]: significantly less than that of the 8-aa-loop-H127C mutein
